Publication PMC7883291, “Selective cross‐linking of coinciding protein assemblies by in‐gel cross‐linking mass spectrometry” (The EMBO Journal, 2021)
Values joined by “and” are separate entries in the source; they are usually repeats but may differ in a detail not shown here. Equal values may be shown once.

Molecular target: T1, Escherichia coli GroEL chaperone (Escherichia coli, UniProt P0A6F5 2-548)
T1 construct: GroEL chaperonin, Escherichia coli; monomer band at 57 kDa, native 14-mer of 800 kDa; also called 14-mer GroEL; source: expressed and purified as previously described; copies: 14
Experiment: native gel or EMSA; BN-PAGE after incubation of unfolded gp23 (11.4 µM) with GroEL (0.8 µM) in 50 mM Tris pH 7.5, 50 mM KCl, MgCl2, 1 mM ADP, 10 min at RT; subunits in the bands quantified by iBAQ
Conditions: both partners purified

T1 sequence (P0A6F5 2-548): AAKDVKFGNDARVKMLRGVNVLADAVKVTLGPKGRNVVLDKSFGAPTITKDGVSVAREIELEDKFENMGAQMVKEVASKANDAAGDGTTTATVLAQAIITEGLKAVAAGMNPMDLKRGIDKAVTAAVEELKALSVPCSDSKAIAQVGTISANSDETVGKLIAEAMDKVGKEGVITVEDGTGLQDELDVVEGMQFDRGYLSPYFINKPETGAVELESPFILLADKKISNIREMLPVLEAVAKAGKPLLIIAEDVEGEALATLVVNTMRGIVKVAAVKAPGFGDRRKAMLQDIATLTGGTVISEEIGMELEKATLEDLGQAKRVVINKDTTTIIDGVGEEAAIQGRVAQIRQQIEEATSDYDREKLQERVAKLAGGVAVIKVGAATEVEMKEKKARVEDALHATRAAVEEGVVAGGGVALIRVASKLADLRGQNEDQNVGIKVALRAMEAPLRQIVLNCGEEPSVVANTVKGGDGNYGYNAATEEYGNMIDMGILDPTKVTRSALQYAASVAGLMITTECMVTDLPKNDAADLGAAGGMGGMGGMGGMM

B1: bacteriophage T4 capsid protein (gp23) (natural protein, UniProt P04535 1-521, looked up)
chain: MTIKTKAELLNKWKPLLEGEGLPEIANSKQAIIAKIFENQEKDFQTAPEYKDEKIAQAFGSFLTEAEIGGDHGYNATNIAAGQTSGAVTQIGPAVMGMVRRAIPNLIAFDICGVQPMNSPTGQVFALRAVYGKDPVAAGAKEAFHPMYGPDAMFSGQGAAKKFPALAASTQTTVGDIYTHFFQETGTVYLQASVQVTIDAGATDAAKLDAEIKKQMEAGALVEIAEGMATSIAELQEGFNGSTDNPWNEMGFRIDKQVIEAKSRQLKAAYSIELAQDLRAVHGMDADAELSGILATEIMLEINREVVDWINYSAQVGKSGMTLTPGSKAGVFDFQDPIDIRGARWAGESFKALLFQIDKEAVEIARQTGRGEGNFIIASRNVVNVLASVDTGISYAAQGLATGFSTDTTKSVFAGVLGGKYRVYIDQYAKQDYFTVGYKGPNEMDAGIYYAPYVALTPLRGSDPKNFQPVMGFKTRYGIGINPFAESAAQAPASRIQSGMPSILNSLGKNAYFRRVYVKGI
notes: major capsid protein gp23 of bacteriophage T4, printed size 56 kDa; Used as an unfolded substrate of GroEL; also called major capsid protein gp23; unfolded gp23; source: expressed and purified as previously described; unfolded in 8 M urea for one hour at RT
- stoichiometry N: 1 and 2
